Results published in publication PMC3144226, “Conformational Plasticity of proNGF” (PLoS ONE, 2011).

B1: mature murine Nerve Growth Factor (NGF) (natural protein, UniProt P01139 122-241, looked up)
chain: SSTHPVFHMGEFSVCDSVSVWVGDKTTATDIKGKEVTVLAEVNINNSVFRQYFFETKCRASNPVESGCRGIDSKHWNSYCTTTHTFVKALTTDEKQAAWRFIRIDTACVCVLSRKATRRG
notes: mature NGF, murine, the cut product of proNGF25 after the furin site RSKR (118-121 of UniProt P01139); Trp21, Trp76, Trp99. numbers count on: the mature protein; The purified NGF was made by trypsin cleavage, the NGF of the furin experiment by furin cleavage in the tube; also called mature NGF; NGF moiety; source: in the furin experiment released from proNGF25 by furin in the NMR tube

What was measured:
[1] = target: recombinant murine proNGF (proNGF25, the short form of the precursor protein) (murine) (UniProt P01139); assay: NMR diffusion (PFG-LED); diffusion compared with model proteins (IscS dimer, DHFR, NusA KH domain); phosphate buffer pH 7, 25°C
[2] = target: the molecule itself; assay: 1D 1H NMR spectrum (linewidths); unlabelled NGF; phosphate buffer pH 7, 25°C

Molecule | stoichiometry N [1] | binding result [2]
recombinant murine proNGF (proNGF25, the short form of the precursor protein) (from UniProt P01139 19-241) (natural protein) | 2 | 
B1 |  | binds
